According to patent publication US20110165156A1 (published 2011):

B1: Mab 2F11 (antibody, V domains shown)
VH: QVQLKESGPGLVAPSQSLSITCTVSGFSLTTYDISWIRQSPGKGLEWLGVIWTDGGTNYNSPFMSRLSIRKDNSKSQVFLKMNRLQTDDTAIYYCVRDQRLYFDVWGAGTTVTVSS
VL: NIVMTQSPKSMSMSVGERVTLNCKASEDVNTYVSWYQQQPEQSPKLLIYGASNRYTGVPDRFTGGGSTTDFTLTISSVQAEDLADYFCGQSFSYPTFGTGTKLEIK
notes: Murine monoclonal antibody from a hybridoma; also called muMab 2F11
B2: Mab 1G10 (antibody, V domains shown)
VH: RVQLKESGPGLVAPSQSLSITCTVSGFSLTSYDISWIRQSPGKGLEWLGVIWSGGGTNYNSPFMSRLRISKDDSRSQVFLKVNRLQTDDTAIYYCVRDLRLYFDVWGAGTTVTVSS
VL: KIVMTQSPKSMSVSVGERVSLSCKASEDVGTYVSWYQQKPEQSPKLLIYGSSNRYTGVPDRFTGSGSATDFTLTISSVQAEDLADYSCGQSFTYPTFGTGTKLEIK
notes: Murine monoclonal antibody from a hybridoma
B3: Mab 2E10 (antibody, V domains shown)
VH: QVQLKESGPGLVAPSKSLSITCTVSGSSLDSFDISWIRQSPGKGLEWLGVIWTGGGTNYNSGFMSRLRITKDNSKSQVLLKMNSLQSDDTAIYYCVRDPRLYFDVWGAGTTVTVSS
VL: NIVMTQSPKSMSMSVGERVTLSCKASEDVVTYVSWYQQKPDQSPKLLIYGASNRYTGVPDRFTGSGSATDFTLTISSVQAEDLADYYCGQTFSYPTFGTGTKLEIK
notes: as for B2
B4: Mab 2H7 (antibody, V domains shown)
VH: QVQLKESGPGLVAPSKSLSITCTVSGSSLDSFDISWIRQPPGKGLEWLGVIWTGGGTNYNSGFMSRLRISKDNSKSQVFLKMSSLQSDDTAIYYCVRDPRLYFDVWGAGTTVTVSS
VL: NIVMTQSPKSMSMSVGERVTLSCKASEDVVTYVSWYQQKPEQSPKLLIYGASNRYTGVPDRFTGSGSATDFTLTISSIQAEDLADYYCGQTFSYPTFGTGTKLEIK
notes: as for B2

Experiments:
[1] = molecular target: CSF-1R of cynomolgous monocytes (cynomolgous); assay: cell-based or functional assay
[2] = molecular target: T1, human CSF-1R fragment D1-D3 (human, UniProt P07333 20-311); assay: SPR Biacore T100, 37 C, antibody captured, D1-D3 single cycle kinetics
T1 construct: Subcloned into the pCMV-presS-HisAvitag expression vector; not shown: His-Avi tag of the vector pCMV-presS-HisAvitag
T1 sequence (P07333 20-311): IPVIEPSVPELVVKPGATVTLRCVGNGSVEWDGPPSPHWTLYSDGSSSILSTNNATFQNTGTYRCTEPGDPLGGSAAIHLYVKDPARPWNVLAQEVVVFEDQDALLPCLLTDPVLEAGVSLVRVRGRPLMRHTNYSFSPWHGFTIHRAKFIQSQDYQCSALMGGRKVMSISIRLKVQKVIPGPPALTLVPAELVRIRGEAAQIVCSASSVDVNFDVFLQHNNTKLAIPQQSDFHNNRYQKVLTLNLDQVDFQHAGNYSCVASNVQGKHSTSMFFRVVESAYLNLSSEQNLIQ
Experimental: Antibodies against CSF-1R were captured via amine coupled capture molecules. Using the single cycle kinetics five increasing concentrations of human CSF-1R fragment D1-D3 (SEQ ID NO: 66) were injected. Human CSF-1R fragment D1-D3 was subcloned into pCMV-presS-HisAvitag expression vector.
Single Cycle Kinetics was measured at a flow rate of 30 μL/min by five consecutive injections of the analyte with concentrations, c=7.8, 31.25, 125 500 and 2000 nM, without regeneration. Each injection was 30 seconds long and followed by a dissociation phase of 120 Seconds for the first four injections, and finally 1200 seconds for the highest concentration (=last injection).
Kinetic parameters were calculated by using the usual double referencing (control reference: binding of analyte to capture molecule; Flow Cell: subdomain CSF-1R concentration “0” as Blank) and calculation with model ‘titration kinetics 1:1 binding with draft’.

Binder | % inhibition (of survival) = (100% - % survival) [1] [%] | % survival (cynomolgous monocytes, 5 µg/ml antibody) [1] [%] | binding result [2]
B1 | 96 | 4 | no binding (tested: 2000 nM)
B2 | 98 | 2 | no binding (tested: 2000 nM)
B3 | 83 | 17 | no binding (tested: 2000 nM)
B4 | 92 | 8 | –
